# Laboratory results from article PMC12316308, “Interactions of substrates and phosphinyl containing inhibitors with bacterial and human zinc proteases” (PLOS One, 2025).
# The star is where a group is joined. Dnp = O=[N+]([O-])c1ccc(*)c([N+](=O)[O-])c1; Mca = COc1ccc2c(CC(=O)*)cc(=O)oc2c1
# How the values were obtained:
# TLN [1] = target: T1, TLN (Bacillus thermoproteolyticus, UniProt P00800); experiment: Enzymatic activity against ES001 and ES005; assay type: biochemical; set-up: purchased Calbiochem (San Diego, CA, USA); conditions: 10 µM substrate, DMSO omitted, n = 4
# T1 sequence (P00800 233-548): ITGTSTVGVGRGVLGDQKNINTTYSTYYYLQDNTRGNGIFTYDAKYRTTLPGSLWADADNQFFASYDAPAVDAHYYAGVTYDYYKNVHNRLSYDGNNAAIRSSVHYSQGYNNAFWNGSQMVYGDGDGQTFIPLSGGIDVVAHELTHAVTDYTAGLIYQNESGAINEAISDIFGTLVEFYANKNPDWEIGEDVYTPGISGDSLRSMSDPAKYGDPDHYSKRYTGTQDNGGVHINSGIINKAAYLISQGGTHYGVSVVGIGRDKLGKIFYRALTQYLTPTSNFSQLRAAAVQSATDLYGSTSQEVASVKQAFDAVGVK
# Description: (§1) Determination of reaction velocities. The substrate ES001 was used for APMA activated MMP-9 (MMP-9(A)), Mag-Trypsin activated MMP-9 (MMP-9(MT)) and MMP-14, while the substrate ES005 was used for ALN, PLN and TLN. The reaction velocities/initial rates (v) were determined at 37°C, at an excitation wavelength of 320 nm and an emission wavelength of 405 nm with a slit width of 10 nm using either a Perkin Elmer LS 50 Luminescence spectrometer and the FL WinLab Software Package (Perkin Elmer) or a Clario Star micro plate reader (CLARIOstar® BMG LABTECH).
# (§2) To compare the activity of these enzymes against ES001 and ES005 assays were conducted using the same assay condition for all enzymes. The differences from the testing of phosphinic compounds described in the Material and Methods section were that DMSO was omitted, and the concentration of both substrates was 10 µM. A Perkin Elmer LS50 Luminescence Spectrometer was used to measure the activity. Reactions were monitor for one minute, and initial reaction velocities were determined from the activity curves. For each enzyme, the reaction with the presumed optimal substrate was performed first at an arbitrary enzyme concentration, followed immediately by the reaction with the alternate substrate using the same enzyme concentration.
# ALN [2] = target: T2, ALN (Staphylococcus aureus, UniProt P81177); conditions: 1% DMSO, less certain due to substrate quenching above 10 µM; cited from earlier work
# T2 sequence (P81177 209-509): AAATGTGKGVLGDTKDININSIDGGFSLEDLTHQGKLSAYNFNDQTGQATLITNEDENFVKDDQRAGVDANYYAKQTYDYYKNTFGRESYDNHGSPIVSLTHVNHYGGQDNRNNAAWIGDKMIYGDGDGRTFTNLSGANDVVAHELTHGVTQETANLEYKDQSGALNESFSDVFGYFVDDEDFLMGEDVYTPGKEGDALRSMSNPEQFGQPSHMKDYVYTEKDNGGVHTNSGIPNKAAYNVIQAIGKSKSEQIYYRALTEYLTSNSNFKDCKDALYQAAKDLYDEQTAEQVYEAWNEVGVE
# PLN [3] = target: T3, PLN (Pseudomonas aeruginosa, UniProt P14756); assay type: biochemical; set-up: purchased Calbiochem (San Diego, CA, USA)
# T3 sequence (P14756 198-498): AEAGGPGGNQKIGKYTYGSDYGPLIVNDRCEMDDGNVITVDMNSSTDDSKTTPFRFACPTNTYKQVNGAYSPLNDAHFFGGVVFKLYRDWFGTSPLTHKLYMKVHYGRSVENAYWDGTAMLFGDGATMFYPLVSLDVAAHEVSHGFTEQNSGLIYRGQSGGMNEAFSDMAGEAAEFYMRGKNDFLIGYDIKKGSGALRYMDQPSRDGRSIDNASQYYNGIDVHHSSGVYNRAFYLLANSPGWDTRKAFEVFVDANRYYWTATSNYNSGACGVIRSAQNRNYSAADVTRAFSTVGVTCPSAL
# Description: as §1, §2
# MMP-9(MT) = target: T4, MMP-9(MT) (Homo sapiens, UniProt P14780); experiment: Enzymatic activity against ES001 and ES005; assay type: biochemical; conditions: 10 µM substrate, DMSO omitted, n = 4
# T4 construct: made in house; host or cells: Sf9 and High Five insect cells
# T4 sequence (P14780 107-707 limits assumed): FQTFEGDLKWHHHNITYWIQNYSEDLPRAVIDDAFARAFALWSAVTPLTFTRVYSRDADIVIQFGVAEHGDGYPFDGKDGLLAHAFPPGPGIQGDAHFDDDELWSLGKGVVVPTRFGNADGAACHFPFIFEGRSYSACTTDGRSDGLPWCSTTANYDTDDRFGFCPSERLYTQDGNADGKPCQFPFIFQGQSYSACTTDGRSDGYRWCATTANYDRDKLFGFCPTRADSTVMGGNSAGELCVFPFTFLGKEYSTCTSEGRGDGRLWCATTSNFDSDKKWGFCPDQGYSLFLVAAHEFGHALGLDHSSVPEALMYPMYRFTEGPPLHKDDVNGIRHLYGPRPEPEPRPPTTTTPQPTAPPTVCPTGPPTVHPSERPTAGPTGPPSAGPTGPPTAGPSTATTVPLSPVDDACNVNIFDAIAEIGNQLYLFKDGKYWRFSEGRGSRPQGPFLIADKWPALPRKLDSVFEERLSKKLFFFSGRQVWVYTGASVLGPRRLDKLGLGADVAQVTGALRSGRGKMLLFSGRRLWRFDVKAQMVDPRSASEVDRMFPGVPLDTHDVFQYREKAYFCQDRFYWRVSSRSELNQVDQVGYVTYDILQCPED
# Description: as §1, §2
# MMP-14 = target: T5, MMP-14 (Homo sapiens, UniProt P50281); experiment: Enzymatic activity against ES001 and ES005; assay type: biochemical; conditions: 10 µM substrate, DMSO omitted, n = 4
# T5 construct: human MT1-MMP/MMP-14 (catalytic domain); purchased Calbiochem (San Diego, CA, USA)
# Description: as §1, §2
# MMP-9(A) = target: T6, MMP-9(A) (Homo sapiens, UniProt P14780); experiment: Enzymatic activity against ES001 and ES005; assay type: biochemical; conditions: 10 µM substrate, DMSO omitted, n = 4
# T6 construct: made in house; host or cells: Sf9 and High Five insect cells
# T6 sequence (P14780 107-707 limits assumed): as above
# Description: as §1, §2
# ALN [4] = target: T2, ALN; assay type: biochemical; set-up: purchased BioCentrum Ltd (Kraków, Poland)
# Description: as §1, §2
# PLN [5] = target: T3, PLN; conditions: 1% DMSO, less certain due to substrate quenching above 10 µM; cited from earlier work
# thermolysin (TLN) = target: T7, thermolysin (TLN) (Bacillus thermoproteolyticus, UniProt P00800); experiment: MALDI-TOF MS analysis of ES005 cleavage; assay type: biochemical; conditions: 50 µM ES005, 10 nM TLN, 5 minutes, 37°C
# T7 construct: purchased Calbiochem (San Diego, CA, USA)
# Description: MALDI-TOF MS spectra were recorded for samples containing different enzyme and substrate concentrations at various time points using an Autoflex Speed instrument (Bruker Daltonik GmbH, Leipzig, Germany) equipped with a 355-nm nitrogen laser for desorption and ionization. The ionization matrix, HCCA, was dissolved to 10 mg/mL in a standard solvent (50% MeCN, 47.5% MQ-water, and 2.5% TFA) by vigorous vortexing. Prior to the MALDI run, a main buffer (0.1 M Hepes, pH 7.5, 10 mM CaCl2) was used to dilute TLN to stock concentrations of 1000, 100 and 50 nM, ES005–500 µM, and galardin to 10 µM. All stocks solutions were kept on ice. For the 0 min incubation, 1 µL TLN and 1 µL galardin were preincubated at 37°C in 8 µL of the main buffer for 10 min before adding 1 µL of ES005. For all other time points, 1 µL of ES005 was added to tubes containing 8 µL buffer and 1 µL of TLN at different concentrations, followed by incubation at 37°C. At each timepoint (0, 1, 3, 5, 10, 20, 30, 60, 120 min), 1 µL of galardin was added to stop enzyme activity. After the final incubation, 1 µL aliquots from each timepoint were mixed with an equal volume of HCCA and spotted onto a MALDI plate. […] The resulting mass spectra were analysed using flexAnalysis software (v3.3, Bruker).
# TLN [6] = target: T1, TLN; conditions: 1% DMSO; cited from earlier work
# [7] = 10 µM substrate, DMSO omitted, n = 4
substance,measurement,setting,value
Mca-Arg-Pro-Pro-Gly-Phe-Ser-Ala-Phe-Lys(Dnp)-OH (Mca-RPPGFSAFK(Dnp)-OH; SMILES COc1ccc2c(CC(=O)N[C@@H](CCCNC(=N)N)C(=O)N3CCC[C@H]3C(=O)N3CCC[C@H]3C(=O)NCC(=O)N[C@@H](Cc3ccccc3)C(=O)N[C@@H](CO)C(=O)N[C@@H](C)C(=O)N[C@@H](Cc3ccccc3)C(=O)N[C@@H](CCCCNc3ccc([N+](=O)[O-])cc3[N+](=O)[O-])C(=O)O)cc(=O)oc2c1) [ES005],Enzymatic activity,TLN [1],326 ± 36 ΔF/min
same,Km,ALN [2],76 ± 7 µM
same,higher activity for ES005 than ES001,PLN [3],approximately 15 fold
same,Enzymatic activity,PLN [3]; [7],138 ± 4 ΔF/min
same,Enzymatic activity,MMP-9(MT),18 ± 8 ΔF/min
same,Enzymatic activity,MMP-14,8 ± 2 ΔF/min
same,Enzymatic activity,MMP-9(A),5.1 ± 0.2 ΔF/min
same,higher activity for ES005 than ES001,ALN [4],~5 fold
same,Enzymatic activity,ALN [4]; [7],354 ± 61 ΔF/min
same,Km,PLN [5],24 ± 8 µM
same,cleavage sites (MALDI-TOF MS),thermolysin (TLN),"cleaved at three sites: Gly-Phe (m/z 642), Ser-Ala (m/z 876), and Ala-Phe (m/z 947)"
same,Km,TLN [6],6 ± 1 µM
